Results: patent US7560106B2, “Rationally designed heparinases derived from heparinase I and II and methods of sequencing therewith” (Massachusetts Institute of Technology, priority 1998, dated 2009)
Entries after “also recorded” stand apart in the source; their conditions may differ.

How the values were obtained:
[1] = Heparinase I UV 232 nm activity assay as a function of heparin concentration (Kcat, Km); assay type: biochemical, porcine; conditions: for effect on enzyme activity (kcat), in words: compared to wild-type r-heparinase I; for Kcat / Km: heparin 0 to 4 mg/ml, 5 mM calcium acetate, pH 7.0; for Kcat: 100 mM MOPS
Source text: Heparinase II Activity Assay. Native heparinase II from Flavobacterium heparinum, was purified as described previously (Godavarti, R., and Sasisekharan, R (1996c) Biochem. Biophys. Res. Comm. 229, 770-777). The UV 232 nm assay to quantify native heparinase II enzymatic activity was similar to that reported for heparinase I (Bernstein, H., Yang, V. C., Cooney, C. L., Langer, R. (1988) Meth. Enzym. 137, 515-29). Briefly, the course of the reaction is monitored by measuring the increase in absorbance at 232 nm as a function of time under saturating substrate concentrations. With heparin as the substrate, the reaction was carried out at a concentration of 4 mg/ml in 50 mM sodium phosphate buffer, pH 7.3. With 2 mg/ml heparan sulfate, the reaction was measured in 50 mM sodium phosphate buffer, pH 6.9 (Sasisekharan, R., Moses, M. A., Nugent, M. A., Cooney, C. L., Langer, R. (1994) Proc. Natl. Acad. Sci., USA 91, 1524-1528). The temperature for all enzymatic activity measurements was kept constant at 35° C.
Heparinase I Activity Assay. The UV 232 nm assay to quantify heparinase I enzymatic activity was similar to that described in Example 1. With heparin as the substrate, the reaction was carried out at a concentration of 4 mg/ml in 100 mM MOPS, 5 mM calcium acetate, pH 7.0. The temperature for all enzymatic activity measurements was kept constant at 30° C. For the inactivation kinetic profiles, activity was measured as outlined above at precise time points.
(§1) Heparinase I Activity Assays: The UV 232 nm assay was used as described in Example 1. When measuring the enzyme activity as a function of heparin concentration, heparin concentrations varied from 0 to 4 mg/ml at a fixed calcium concentration of 5 mM (100 mM MOPS buffer/5 mM calcium acetate, pH 7.0). The data was then fit to an non-linear equation to determine Kcat and Km of heparinases I. Heparinase mutant activity was also investigated as a function of calcium concentration ranging from 0 to 10 mM. […] Activity is expressed as IU-μmol product formed/min using ∈=−3800-M^−1CM^−1.

[2] = Heparinase I activity as a function of calcium concentration (K0.5, calcium dependence); assay type: biochemical
Method: as §1

[3] = Heparin-POROS affinity chromatography; assay type: binding; conditions: for NaCl: salt concentration at which enzyme elutes from heparin-POROS column, 10 mM Tris, 1 mM EDTA pH 7.0
Method: Heparin-POROS chromatography: About 30-40 μg of -L r-heparinase I and the various mutant enzymes were injected into a heparin POROS (4.6 mm×100) column (PerSeptive BioSystems, Framingham, Mass.) connected to BioCAD system (PerSeptive BioSystems). Proteins were eluted using a linear gradient of […] NaCl in 10 min (10 mM Tris, 1 mM EDTA pH 7.0) and monitored at 210 nm. EDTA was added to chelate any calcium ions that may be present in the buffers.

[4] = calcium concentration at which half of the maximum enzyme activity was observed, calcium 0 to 10 mM, Table 4 first K0.5 column

Molecule	effect on enzyme activity (kcat), in words [1]	Kcat [1]	Km [1]	K0.5 ([2]; Table 4 second K0.5 column)	K0.5 [2, 4]	elution salt concentration / heparin binding relative to wild-type r-heparinase I, in words [3]	NaCl [3]	dependence of enzyme activity on calcium [2]
G378A: heparinase I CB-2 mutant, glycine 378 changed to alanine (protein, UniProt Q05819 22-384, looked up, variant G378A) Heparin lyase I: QQKKSGNIPYRVNVQADSAKQKAIIDNKWVAVGINKPYALQYDDKLRFNGKPSYRFELKAEDNSLEGYAAGETKGRTELSYSYATTNDFKKFPPSVYQNAQKLKTVYHYGKGICEQGSSRSYTFSVYIPSSFPDNATTIFAQWHGAPSRTLVATPEGEIKTLSIEEFLALYDRMIFKKNIAHDKVEKKDKDGKITYVAGKPNGWKVEQGGYPTLAFGFSKGYFYIKANSDRQWLTDKADRNNANPENSEVMKPYSSEYKTSTIAYKMPFAQFPKDCWITFDVAIDWTKYGKEANTILKPGKLDVMMTYTKNKKPQKAHIVNQQEILIGRNDDDGYYFKFGIYRVGNSTVPVTYNLSAYSETAR	decreased only by about 1 half	41 s⁻¹	0.74 µM	80 µM	80 µM	comparable to wild-type r-heparinase I	489 mM	
E207A/D210A: heparinase I CB-1 double mutant (protein, UniProt Q05819 22-384, looked up, variant E207A D210A) Heparin lyase I: QQKKSGNIPYRVNVQADSAKQKAIIDNKWVAVGINKPYALQYDDKLRFNGKPSYRFELKAEDNSLEGYAAGETKGRTELSYSYATTNDFKKFPPSVYQNAQKLKTVYHYGKGICEQGSSRSYTFSVYIPSSFPDNATTIFAQWHGAPSRTLVATPEGEIKTLSIEEFLALYDRMIFKKNIAHDKVAKKAKDGKITYVAGKPNGWKVEQGGYPTLAFGFSKGYFYIKANSDRQWLTDKADRNNANPENSEVMKPYSSEYKTSTIAYKMPFAQFPKDCWITFDVAIDWTKYGKEANTILKPGKLDVMMTYTKNKKPQKAHIVNQQEILIGRNDDDGYYFKFGIYRVGNSTVPVTYNLSGYSETAR		65 s⁻¹	2.77 µM	470 µM	470 µM		513 mM	
E207A/D212A: heparinase I CB-1 double mutant (protein, UniProt Q05819 22-384, looked up, variant E207A D212A) Heparin lyase I: QQKKSGNIPYRVNVQADSAKQKAIIDNKWVAVGINKPYALQYDDKLRFNGKPSYRFELKAEDNSLEGYAAGETKGRTELSYSYATTNDFKKFPPSVYQNAQKLKTVYHYGKGICEQGSSRSYTFSVYIPSSFPDNATTIFAQWHGAPSRTLVATPEGEIKTLSIEEFLALYDRMIFKKNIAHDKVAKKDKAGKITYVAGKPNGWKVEQGGYPTLAFGFSKGYFYIKANSDRQWLTDKADRNNANPENSEVMKPYSSEYKTSTIAYKMPFAQFPKDCWITFDVAIDWTKYGKEANTILKPGKLDVMMTYTKNKKPQKAHIVNQQEILIGRNDDDGYYFKFGIYRVGNSTVPVTYNLSGYSETAR		58 s⁻¹	0.93 µM	710 µM	710 µM		513 mM	
T382A: heparinase I CB-2 mutant, threonine 382 changed to alanine (protein, UniProt Q05819 22-384, looked up, variant T382A) Heparin lyase I: QQKKSGNIPYRVNVQADSAKQKAIIDNKWVAVGINKPYALQYDDKLRFNGKPSYRFELKAEDNSLEGYAAGETKGRTELSYSYATTNDFKKFPPSVYQNAQKLKTVYHYGKGICEQGSSRSYTFSVYIPSSFPDNATTIFAQWHGAPSRTLVATPEGEIKTLSIEEFLALYDRMIFKKNIAHDKVEKKDKDGKITYVAGKPNGWKVEQGGYPTLAFGFSKGYFYIKANSDRQWLTDKADRNNANPENSEVMKPYSSEYKTSTIAYKMPFAQFPKDCWITFDVAIDWTKYGKEANTILKPGKLDVMMTYTKNKKPQKAHIVNQQEILIGRNDDDGYYFKFGIYRVGNSTVPVTYNLSGYSEAAR	decreased only by about 1 half	65 s⁻¹	1.64 µM	100 µM	100 µM	comparable to wild-type r-heparinase I	488 mM	
T373A: heparinase I CB-2 mutant, threonine 373 changed to alanine (protein, UniProt Q05819 22-384, looked up, variant T373A) Heparin lyase I: QQKKSGNIPYRVNVQADSAKQKAIIDNKWVAVGINKPYALQYDDKLRFNGKPSYRFELKAEDNSLEGYAAGETKGRTELSYSYATTNDFKKFPPSVYQNAQKLKTVYHYGKGICEQGSSRSYTFSVYIPSSFPDNATTIFAQWHGAPSRTLVATPEGEIKTLSIEEFLALYDRMIFKKNIAHDKVEKKDKDGKITYVAGKPNGWKVEQGGYPTLAFGFSKGYFYIKANSDRQWLTDKADRNNANPENSEVMKPYSSEYKTSTIAYKMPFAQFPKDCWITFDVAIDWTKYGKEANTILKPGKLDVMMTYTKNKKPQKAHIVNQQEILIGRNDDDGYYFKFGIYRVGNSTVPVAYNLSGYSETAR	no significant decrease in enzyme activity	85 s⁻¹	0.96 µM	50 µM	50 µM	comparable to wild-type r-heparinase I	480 mM	
D212A/T216A: heparinase I CB-1 double mutant (protein, UniProt Q05819 22-384, looked up, variant D212A T216A) Heparin lyase I: QQKKSGNIPYRVNVQADSAKQKAIIDNKWVAVGINKPYALQYDDKLRFNGKPSYRFELKAEDNSLEGYAAGETKGRTELSYSYATTNDFKKFPPSVYQNAQKLKTVYHYGKGICEQGSSRSYTFSVYIPSSFPDNATTIFAQWHGAPSRTLVATPEGEIKTLSIEEFLALYDRMIFKKNIAHDKVEKKDKAGKIAYVAGKPNGWKVEQGGYPTLAFGFSKGYFYIKANSDRQWLTDKADRNNANPENSEVMKPYSSEYKTSTIAYKMPFAQFPKDCWITFDVAIDWTKYGKEANTILKPGKLDVMMTYTKNKKPQKAHIVNQQEILIGRNDDDGYYFKFGIYRVGNSTVPVTYNLSGYSETAR		52 s⁻¹	1.52 µM	320 µM	320 µM		497 mM	
S377A: heparinase I mutant where serine 377 is mutated to alanine; calcium-independent (protein, UniProt Q05819 22-384, looked up, variant S377A) Heparin lyase I: QQKKSGNIPYRVNVQADSAKQKAIIDNKWVAVGINKPYALQYDDKLRFNGKPSYRFELKAEDNSLEGYAAGETKGRTELSYSYATTNDFKKFPPSVYQNAQKLKTVYHYGKGICEQGSSRSYTFSVYIPSSFPDNATTIFAQWHGAPSRTLVATPEGEIKTLSIEEFLALYDRMIFKKNIAHDKVEKKDKDGKITYVAGKPNGWKVEQGGYPTLAFGFSKGYFYIKANSDRQWLTDKADRNNANPENSEVMKPYSSEYKTSTIAYKMPFAQFPKDCWITFDVAIDWTKYGKEANTILKPGKLDVMMTYTKNKKPQKAHIVNQQEILIGRNDDDGYYFKFGIYRVGNSTVPVTYNLAGYSETAR	no significant decrease in enzyme activity	71 s⁻¹	2.74 µM	50 µM	50 µM	comparable to wild-type r-heparinase I	486 mM	loss of dependence on calcium; also recorded: calcium-independent
